Reference: patent US20120107324A1 (published 2012)
Substitutions are numbered along the chain they refer to. Values belong to the binder of their own block, whether it stands above or below them.

Tests used:
[1] = biological target: T1, Macaque α5β1 (Macaque); assay: FACS on macaque T-cells; Goat anti Human IgG Fc Cy5 alone 3
T1 construct: whole, on cells; On macaque T-cells (from frozen PBMCs); also called monkey α5β1; monkey integrin
Experimental: To determine whether the antibodies cross reacted to monkey integrin, binding to purified Macaque T-cells was assessed. Macaque PBMCs were previously purified from whole blood, and stored frozen. Macaque PBMCs were suspended in adhesion buffer with HBSS 1% BSA and 1 mM Mn2+ (“FACS buffer”), at a concentration of 4.8×10⁵ live cells per ml. 12.5 uL of the primary antibody was added to 37.5 ul of cells, and incubated at 4° C. for 1 hour. Positive and negative controls were included as indicated. 100 uL of FACs buffer is added to dilute out primary antibody, the cells washed and resuspended in the appropriate secondary at 2 ug/mL (50 uL) with 10 ug/mL 7AAD, and stained on ice for 7 minutes. 100 uL of FACs buffer was added and cells were washed twice in FACS buffer, finally the supernatant removed and the cells were resuspended in 100 uL of buffer.
Samples were read on HTS FACS machine and analyzed using Cell Quest Pro software. The data shown in Table 7 confirm that the antibodies cross react with monkey α5β1.

[2] = biological target: T2, human α5β1 integrin (human, UniProt P08648 42-1049; P05556 21-798); assay: cell-based or functional assay
[3] = biological target: T3, β1 chain (integrin β1) (human, UniProt P05556 21-798); assay: FACS on HT29 cells (α5 null, β1 present); cells alone 2.07, human secondary 2.8
T3 construct: whole, on cells; also called b1; beta1
Experimental: (§1) To confirm the antibodies bind to the α5 chain or to the α5β1 heterodimer, binding to Human colon adenocarcinoma grade II cells (HT29 cells) was assessed by FACS. […] HT-29 cells were suspended in HBSS with 1% BSA and 1 mM final MnCL₂ at a concentration of 6×10⁵ cells/ml. 12.5 uL of the primary antibody was added to 37.5 ul of cells and the plate incubated on ice for 60 minutes. A range of negative controls were included as described previously (indicated as below). In addition as a positive control antibodies to αvβ6 (Mab2077, Chemicon), α5β1 (Mab1909, Chemicon) and αv (L230, Chemicon) were included. 100 uL of HBSS buffer was added to dilute primary antibody, the cells pelleted by centrifuging at 1500 rpm for 3 minutes and resuspended in 50 ul Goat anti-human IgG Fc Cy5 or Goat anti Mouse IgG Fc Cy5 secondary at 2 ug/mL. They were then incubated on ice for a further 7 minutes, and 100 uL of HBSS buffer was added to dilute secondary antibody. Finally cells were pelleted by centrifuging at 1500 rpm for 3 minutes, HBSS Buffer/secondary supernatant removed, washed twice in 100 ul of FACS buffer was added and the cells were resuspended and then read on a FACS Calibur HTS. Samples were analyzed using Cell Quest Pro software. The data is represented in Table 6 and confirm that the antibodies are selective for α5β1.

[4] = biological target: T4, α4β1 integrin (UniProt P13612 34-1032; P05556 21-798); assay: cell-based or functional assay
[5] = biological target: T3, β1 chain (integrin β1); assay: FACS on HT29 cells (no α5 chain, β1 chain present)
Experimental: as §1

[6] = biological target: T4, α4β1 integrin; assay: cell-based or functional assay; remark: listed apart in the source
[7] = biological target: T2, human α5β1 integrin; assay: cell-based or functional assay; remark: listed apart in the source
[8] = biological target: T2, human α5β1 integrin; assay: cell-based or functional assay; remark: listed apart in the source
[9] = biological target: T2, human α5β1 integrin; assay: FACS titration on K562 cells expressing α5β1, 1 mM MgCl2 and 1 mM CaCl2, 4 °C, nonlinear 4-parameter fit; 95% CI ±61.4 pM
Experimental: To assess the affinity of the antibodies for α5β1, a FACS based KD analysis was employed. […] K562 cells expressing α5β1 were resuspended in filtered HBS buffer containing 1 mM MgCl₂ and 1 mM CaCl₂ at a concentration of approximately 2.5-6 million cells/mL. The cells were kept on ice. Serially diluted (2×) mAbs across 11 wells in a 96-well plate. All mAbs were diluted in HBS described above. Additional HBS and cells were added to each well so that the final volume was 300 μL/well and each well contained approximately 140,000-150,000 cells. The final molecular concentration range for each mAb was 2H12: 7.5 nM-[…]. Cells were incubated on a plate shaker for 5 hours at 4° C. and then were spun/washed 3× at 4° C. with HBS. […] The Mean Fluorescence (F) of 7000 “events” was determined using FACS Canto II HTS flow cytometry instrumentation. To calculate affinity, data was fitted nonlinearly to a plot of the Mean Fluorescence as a function of molecular mAb concentration with Scientist 3.0 software using the equation:
In this equation, F=mean fluorescence, LT=total molecular mAb concentration, P′=proportionality constant that relates arbitrary fluorescence units to bound mAb, M=cellular concentration in molarity, n=number of receptors per cell, B=background signal, and KD=equilibrium dissociation constant. […]

T3 sequence (P05556 21-798): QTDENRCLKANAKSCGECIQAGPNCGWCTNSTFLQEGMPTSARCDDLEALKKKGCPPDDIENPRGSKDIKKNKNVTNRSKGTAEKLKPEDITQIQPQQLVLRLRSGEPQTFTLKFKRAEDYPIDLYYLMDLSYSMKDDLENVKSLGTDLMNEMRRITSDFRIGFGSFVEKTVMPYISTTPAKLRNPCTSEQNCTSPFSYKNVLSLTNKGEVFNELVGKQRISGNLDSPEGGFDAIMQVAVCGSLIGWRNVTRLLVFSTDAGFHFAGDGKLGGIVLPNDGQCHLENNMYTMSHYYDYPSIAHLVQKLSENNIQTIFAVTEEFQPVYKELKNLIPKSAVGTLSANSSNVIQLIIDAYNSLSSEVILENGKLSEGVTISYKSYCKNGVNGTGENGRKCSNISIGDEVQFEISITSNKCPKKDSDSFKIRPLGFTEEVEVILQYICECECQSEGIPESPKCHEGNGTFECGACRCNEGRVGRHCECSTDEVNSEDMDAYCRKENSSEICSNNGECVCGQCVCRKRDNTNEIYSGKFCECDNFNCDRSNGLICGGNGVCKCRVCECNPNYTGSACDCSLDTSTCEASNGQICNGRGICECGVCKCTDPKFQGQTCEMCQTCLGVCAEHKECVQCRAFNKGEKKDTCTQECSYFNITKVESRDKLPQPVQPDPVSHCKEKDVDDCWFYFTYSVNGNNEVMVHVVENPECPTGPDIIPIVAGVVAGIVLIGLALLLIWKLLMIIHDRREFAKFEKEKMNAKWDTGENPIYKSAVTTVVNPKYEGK
T2 sequence (P08648 42-1049, chain 1 of 2): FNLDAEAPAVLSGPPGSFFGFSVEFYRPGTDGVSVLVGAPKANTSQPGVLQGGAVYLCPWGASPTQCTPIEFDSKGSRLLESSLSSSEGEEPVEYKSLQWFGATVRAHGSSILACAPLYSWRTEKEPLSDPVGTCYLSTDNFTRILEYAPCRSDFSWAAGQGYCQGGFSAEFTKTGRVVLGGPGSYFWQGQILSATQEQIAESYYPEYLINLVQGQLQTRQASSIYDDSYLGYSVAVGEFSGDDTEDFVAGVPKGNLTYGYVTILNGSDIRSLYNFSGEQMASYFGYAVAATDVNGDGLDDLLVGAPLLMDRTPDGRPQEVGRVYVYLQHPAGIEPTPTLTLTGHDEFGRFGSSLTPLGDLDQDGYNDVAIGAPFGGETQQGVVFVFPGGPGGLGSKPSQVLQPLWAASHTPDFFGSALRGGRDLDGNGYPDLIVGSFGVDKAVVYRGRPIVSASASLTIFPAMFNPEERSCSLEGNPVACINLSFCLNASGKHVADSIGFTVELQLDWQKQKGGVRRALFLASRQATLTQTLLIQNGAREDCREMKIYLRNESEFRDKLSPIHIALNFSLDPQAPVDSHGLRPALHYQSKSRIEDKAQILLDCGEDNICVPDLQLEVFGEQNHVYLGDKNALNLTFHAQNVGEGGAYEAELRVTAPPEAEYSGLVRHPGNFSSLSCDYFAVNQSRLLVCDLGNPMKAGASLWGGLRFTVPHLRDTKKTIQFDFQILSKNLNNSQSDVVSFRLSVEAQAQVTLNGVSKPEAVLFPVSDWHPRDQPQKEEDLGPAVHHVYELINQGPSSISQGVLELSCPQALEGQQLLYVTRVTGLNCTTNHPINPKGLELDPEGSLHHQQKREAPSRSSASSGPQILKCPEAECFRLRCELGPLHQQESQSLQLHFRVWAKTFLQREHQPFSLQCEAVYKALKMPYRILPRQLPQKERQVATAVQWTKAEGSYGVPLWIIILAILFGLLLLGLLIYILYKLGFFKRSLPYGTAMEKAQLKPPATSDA
T2 sequence (P05556 21-798, chain 2 of 2): as the sequence (P05556 21-798) above
T4 sequence (P13612 34-1032, chain 1 of 2): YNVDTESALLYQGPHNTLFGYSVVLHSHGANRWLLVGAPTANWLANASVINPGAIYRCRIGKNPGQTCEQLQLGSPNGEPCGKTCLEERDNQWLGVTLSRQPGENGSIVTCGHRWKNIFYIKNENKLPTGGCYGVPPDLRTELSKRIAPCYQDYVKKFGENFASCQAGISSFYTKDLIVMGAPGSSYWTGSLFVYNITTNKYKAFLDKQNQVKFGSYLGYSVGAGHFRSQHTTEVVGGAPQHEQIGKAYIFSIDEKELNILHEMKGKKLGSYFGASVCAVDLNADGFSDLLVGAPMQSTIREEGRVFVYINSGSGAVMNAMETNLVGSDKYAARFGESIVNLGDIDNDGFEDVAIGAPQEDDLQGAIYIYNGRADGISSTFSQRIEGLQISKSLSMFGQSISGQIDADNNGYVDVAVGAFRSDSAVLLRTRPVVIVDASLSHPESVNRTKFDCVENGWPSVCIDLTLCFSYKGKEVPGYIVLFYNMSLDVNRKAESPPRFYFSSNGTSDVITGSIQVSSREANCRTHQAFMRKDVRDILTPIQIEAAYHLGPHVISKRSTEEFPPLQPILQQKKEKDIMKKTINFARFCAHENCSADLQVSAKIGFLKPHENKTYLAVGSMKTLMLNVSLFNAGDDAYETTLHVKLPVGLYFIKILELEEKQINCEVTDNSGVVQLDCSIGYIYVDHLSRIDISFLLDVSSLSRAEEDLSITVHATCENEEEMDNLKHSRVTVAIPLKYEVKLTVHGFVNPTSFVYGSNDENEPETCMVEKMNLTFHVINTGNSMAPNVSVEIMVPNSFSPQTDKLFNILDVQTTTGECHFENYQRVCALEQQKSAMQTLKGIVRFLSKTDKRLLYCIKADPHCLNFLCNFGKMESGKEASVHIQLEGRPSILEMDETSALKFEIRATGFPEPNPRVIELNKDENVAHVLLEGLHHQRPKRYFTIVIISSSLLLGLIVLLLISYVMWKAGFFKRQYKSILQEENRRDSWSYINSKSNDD
T4 sequence (P05556 21-798, chain 2 of 2): as the sequence (P05556 21-798) above

B1: 1F2.2B7 (antibody, IgG4, V domains shown)
VH: QVQLVESGGGVVQPGRSLRLSCAASGFTFRSYGMHWVRQAPGKGLEWVAVIWYDGSNKYYADSVKGRFTISRDNSKNTLYLQMNSLRAEDTAMYYCARDGAARRGDYYYYHGMDVWGQGTTVTVSS
VL: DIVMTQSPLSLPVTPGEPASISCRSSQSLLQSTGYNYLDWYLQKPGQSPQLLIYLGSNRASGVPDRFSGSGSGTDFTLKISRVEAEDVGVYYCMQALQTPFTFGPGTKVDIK
notes: also called mAb 1F2.2B7
Geo Mean on Macaque T-cells IgG detection [1]: 9
% Inhibition of cell adhesion, n = 1 (K562 on full length FN, supernatant 1 in 4) [2]: 93%
% Inhibition of cell adhesion, n = 2 (K562 on full length FN, supernatant 1 in 4) [2]: 102%
% Inhibition of cell adhesion, n = 3 (K562 on GST-FNIII(9-10), no pre-incubation, supernatant 1 in 4) [2]: 100%
% Inhibition of cell adhesion, n = 4 (K562 on GST-FNIII(9-10), supernatant 1 in 10) [2]: 98%
% Inhibition of cell adhesion, n = 5 (K562 on GST-FNIII(9-10), supernatant 1 in 10) [2]: 77%
Binding Geomean [3]: 2.75
% Inhibition of adhesion, CS1 n = 1 (J6.77 Jurkat cells on GST-CS-1) [4]: 29%
% Inhibition of adhesion, CS1 n = 2 (J6.77 Jurkat cells on GST-CS-1) [4]: 22%
binding result [5]: no binding

B3: 2H12 IgG2 WT (antibody, V domains shown)
VH: B1 VH with R30S, S56T, M93V, H111Y
VL: DIVMTQSPLSLPVTPGEPASISCRSSQSLLRGHGYSYLDWYLQKPGQSPQLLIYLGSNRASGVPDRFSGSGSGTDFTLKISRVEAEDVGVYYCMQALQTPFTFGPGTKVDIK
IC50 (read off the curve), adhesion of K562 cells to GST-fibronectin repeats 8-10 [7]: ~0.2 µg/mL

B7: 2G2.2B5 (antibody, IgG4, V domains shown)
VH: B1 VH with R30S, M93V, H111Y
VL: B3 VL with D1E, S26G, R31Q, G32S, H33T, Y35S, S36N, D39A
notes: Isotype IgG4/k
Geo Mean on Macaque T-cells IgG detection [1]: 11
% Inhibition of cell adhesion, n = 1 (K562 on full length FN, supernatant 1 in 4) [2]: 100%
% Inhibition of cell adhesion, n = 2 (K562 on full length FN, supernatant 1 in 4) [2]: 102%
% Inhibition of cell adhesion, n = 3 (K562 on GST-FNIII(9-10), no pre-incubation, supernatant 1 in 4) [2]: 97%
% Inhibition of cell adhesion, n = 4 (K562 on GST-FNIII(9-10), supernatant 1 in 10) [2]: 82%
% Inhibition of cell adhesion, n = 5 (K562 on GST-FNIII(9-10), supernatant 1 in 10) [2]: 78%
Binding Geomean [3]: 3.03
Average % inhibition at 5 ug/ml (J6 cell adhesion to GST-CS-1) [6]: -11%
% Inhibition of adhesion, CS1 n = 1 (J6.77 Jurkat cells on GST-CS-1) [4]: 28%
% Inhibition of adhesion, CS1 n = 2 (J6.77 Jurkat cells on GST-CS-1) [4]: -5%
binding result [5]: no binding

B8: 2H12 (antibody, IgG4, V domains shown)
VH: B1 VH with R30S, S56T, N77T, M93V, H111Y
VL: B3 VL
notes: Identified as an IgG4/k antibody; also called MAb 2H12; 2H12 IgG4
% Inhibition of cell adhesion, n = 1 (K562 on full length FN, supernatant 1 in 4) [2]: 89%
% Inhibition of cell adhesion, n = 2 (K562 on full length FN, supernatant 1 in 4) [2]: 100%
% Inhibition of cell adhesion, n = 3 (K562 on GST-FNIII(9-10), no pre-incubation, supernatant 1 in 4) [2]: 96%
% Inhibition of cell adhesion, n = 4 (K562 on GST-FNIII(9-10), supernatant 1 in 10) [2]: 92%
% Inhibition of cell adhesion, n = 5 (K562 on GST-FNIII(9-10), supernatant 1 in 10) [2]: 89%
Kd [9]: 162 pM
Binding Geomean [3]: 2.96
IC50 ng/mL (adhesion of K562 cells to GST-Fibronectin type III domains 9-10) [8]: 43.2 ng/mL
IC50 (read off the curve), adhesion of K562 cells to GST-fibronectin repeats 8-10 [7]: ~0.2 µg/mL

Continued, values first:

Geo Mean on Macaque T-cells IgG detection [1]: 13
% Inhibition of cell adhesion, n = 1 (K562 on full length FN, supernatant 1 in 4) [2]: 103%
% Inhibition of cell adhesion, n = 2 (K562 on full length FN, supernatant 1 in 4) [2]: 100%
% Inhibition of cell adhesion, n = 3 (K562 on GST-FNIII(9-10), no pre-incubation, supernatant 1 in 4) [2]: 97%
% Inhibition of cell adhesion, n = 4 (K562 on GST-FNIII(9-10), supernatant 1 in 10) [2]: 93%
% Inhibition of cell adhesion, n = 5 (K562 on GST-FNIII(9-10), supernatant 1 in 10) [2]: 91%
Binding Geomean [3]: 3.61
Average % inhibition at 5 ug/ml (J6 cell adhesion to GST-CS-1) [6]: -2%
binding result [5]: no binding
B2: 3F12.4A1 (antibody, IgG2, V domains shown)
VH: B1 VH with R30S, S56T, R87T, M93V, G100M, H111Y, Q118P
VL: B3 VL with R31N, H33I, S36N, Y37F, K79T, Q95H
notes: Isotype IgG2/k

Geo Mean on Macaque T-cells IgG detection [1]: 10
% Inhibition of cell adhesion, n = 1 (K562 on full length FN, supernatant 1 in 4) [2]: 98%
% Inhibition of cell adhesion, n = 2 (K562 on full length FN, supernatant 1 in 4) [2]: 100%
% Inhibition of cell adhesion, n = 3 (K562 on GST-FNIII(9-10), no pre-incubation, supernatant 1 in 4) [2]: 91%
% Inhibition of cell adhesion, n = 4 (K562 on GST-FNIII(9-10), supernatant 1 in 10) [2]: 93%
% Inhibition of cell adhesion, n = 5 (K562 on GST-FNIII(9-10), supernatant 1 in 10) [2]: 84%
Binding Geomean [3]: 3.17
Average % inhibition at 5 ug/ml (J6 cell adhesion to GST-CS-1) [6]: -7%
% Inhibition of adhesion, CS1 n = 1 (J6.77 Jurkat cells on GST-CS-1) [4]: 33%
% Inhibition of adhesion, CS1 n = 2 (J6.77 Jurkat cells on GST-CS-1) [4]: 12%
IC50 ng/mL (adhesion of K562 cells to GST-Fibronectin type III domains 9-10) [8]: 49.8 ng/mL
binding result [5]: no binding
B4: 7B1.3A1 (antibody, IgG4, V domains shown)
VH: B1 VH with I51L, Y59N
VL: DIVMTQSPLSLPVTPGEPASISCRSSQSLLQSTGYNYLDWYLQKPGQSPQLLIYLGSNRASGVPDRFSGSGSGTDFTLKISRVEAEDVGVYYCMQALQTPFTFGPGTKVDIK
notes: also called MAb 7B1.3A1

IC50 (read off the curve), adhesion of K562 cells to GST-fibronectin repeats 8-10 [7]: ~0.2 µg/mL
B5: 2H12 Variant 1 (IgG2) (antibody, V domains shown)
VH: B1 VH with R30S, S56T, M93V, H111Y
VL: B3 VL

% Inhibition of cell adhesion, n = 1 (K562 on full length FN, supernatant 1 in 4) [2]: 96%
% Inhibition of cell adhesion, n = 2 (K562 on full length FN, supernatant 1 in 4) [2]: 99%
% Inhibition of cell adhesion, n = 3 (K562 on GST-FNIII(9-10), no pre-incubation, supernatant 1 in 4) [2]: 102%
% Inhibition of cell adhesion, n = 4 (K562 on GST-FNIII(9-10), supernatant 1 in 10) [2]: 100%
% Inhibition of cell adhesion, n = 5 (K562 on GST-FNIII(9-10), supernatant 1 in 10) [2]: 81%
Binding Geomean [3]: 3.06
IC50 ng/mL (adhesion of K562 cells to GST-Fibronectin type III domains 9-10) [8]: 60.2 ng/mL
binding result [5]: no binding
B6: 4G3.3D11 (antibody, IgG4, V domains shown)
VH: B1 VH with T28I, R30S, S56T, M93V, H111Y
VL: B3 VL with R31H, H33T, Y37S, Y92F
notes: Isotype IgG4/k

IC50 ng/mL (adhesion of K562 cells to GST-Fibronectin type III domains 9-10) [8]: 16.7 ng/mL
B9: IIA1 (antibody, V domains shown)
VH: QVQLKESGPGLVAPSQSLSITCTISGFSLTDYGVHWVRQPPGKGLEWLVVIWSDGSSTYNSALKSRMTIRKDNSKSQVFLIMNSLQTDDSAMYYCARHGTYYGMTTTGDALDYWGQGTSVTVSS
VL: QIVLTQSPAIMSASLGERVTMTCTASSSVSSNYLHWYQQKPGSAPNLWIYSTSNLASGVPARFSGSGSGTSYSLTISSMEAEDAATYYCHQYLRSPPTFGGGTKLEIK
